# Like-named read-outs stand apart in the source and are kept apart here.
# Legend:
# [1] = biological target: T1, PP1c (human PP1cα amino acids 7-330, N-terminal Thio6/His6 tag) (human, UniProt P62136 7-330); test: thermophoresis
# [2] = biological target: T1, PP1c (human PP1cα amino acids 7-330, …); test: thermophoresis; remark: listed apart in the source
# T1 sequence (P62136 other isoform, or with tags, fused parts or gaps): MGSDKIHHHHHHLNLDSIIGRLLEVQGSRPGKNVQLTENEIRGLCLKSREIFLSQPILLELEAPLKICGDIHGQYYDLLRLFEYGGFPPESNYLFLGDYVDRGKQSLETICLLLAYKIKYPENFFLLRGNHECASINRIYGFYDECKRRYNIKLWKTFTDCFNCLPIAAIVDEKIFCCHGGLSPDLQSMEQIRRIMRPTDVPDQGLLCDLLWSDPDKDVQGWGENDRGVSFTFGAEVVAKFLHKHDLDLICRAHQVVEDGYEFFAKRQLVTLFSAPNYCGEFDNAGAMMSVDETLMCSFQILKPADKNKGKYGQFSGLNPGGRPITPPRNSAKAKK
Kd [1] [nM],Kd [2] [nM],Binder
960,,"R15B^C (human PPP1R15B amino acids 636-698, N-terminal MBP-tag, C-terminal His6-tag) (other) VKRKKVTFLEEVTEYYISGDEDRKGPWEEFARDGCRFQKRIQETEDAIGYCLTFEHRERMFNRHHHHHH"
,900,"R15B (human PPP1R15B amino acids 340-698, N-terminal MBP-tag, C-terminal His6-tag) (other) RDNPTQFVPAAGDIPGNTQESTEEKIELLTTEVPLALEEESPSEGCPSSEIPMEKEPGEGRISVVDYSYLEGDLPISARPACSNKLIDYILGGASSDLETSSDPEGEDWDEEAEDDGFDSDSSLSDSDLEQDPEGLHLWNSFCSVDPYNPQNFTATIQTAARIVPEEPSDSEKDLSGKSDLENSSQSGSLPETPEHSSGEEDDWESSADEAESLKLWNSFCNSDDPYNPLNFKAPFQTSGENEKGCRDSKTPSESIVAISECHTLLSCKVQLLGSQESECPDSVQRDVLSGGRHTHVKRKKVTFLEEVTEYYISGDEDRKGPWEEFARDGCRFQKRIQETEDAIGYCLTFEHRERMFNRHHHHHH"

# Source: patent US20200199647A1 (published 2020)
